The assay concerns the target CD64 (human, UniProt P12314 16-374). The experiment in a line: cell-based or functional assay.

Sequence of CD64 (P12314 16-374): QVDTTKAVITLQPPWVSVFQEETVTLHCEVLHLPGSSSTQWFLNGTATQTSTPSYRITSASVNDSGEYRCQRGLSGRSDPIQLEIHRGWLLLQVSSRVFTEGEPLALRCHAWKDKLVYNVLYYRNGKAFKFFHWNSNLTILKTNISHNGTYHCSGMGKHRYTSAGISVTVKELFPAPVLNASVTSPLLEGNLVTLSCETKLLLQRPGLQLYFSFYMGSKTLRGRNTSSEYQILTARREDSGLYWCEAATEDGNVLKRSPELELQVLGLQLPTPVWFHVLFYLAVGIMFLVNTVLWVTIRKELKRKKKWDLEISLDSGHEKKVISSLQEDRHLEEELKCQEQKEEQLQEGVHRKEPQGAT

B1: H22-Ang GGRR/QGmut (other)
chain: DAAQPAMAQVQLVESGGGVVQPGRSLRLSCSSSGFIFSDNYMYWVRQAPGKGLEWVATISDGGSYTYYPDSVKGRFTISRDNSKNTLFLQMDSLRPEDTGVYFCARGYYRYEGAMDYWGQGTPVTVSSGGGGSGGGGSGGGGSDIQLTQSPSSLSASVGDRVTITCKSSQSVLYSSNQKNYLAWYQQKPGKAPKLLIYWASTRESGVPSRFSGSGSGTDFTFTISSLQPEDIATYYCHQYLSSWTFGQGTKLEIKAAALESRQDNSRYTHFLTQHYDAKPQGRDDRYCESIMRRRGLTSPCKDINTFIHGNKRSIKAICENKNGNPHRENLRISKSSFQVTTCKLHRRSPWPPCQYRATAGFRNVVVACENGLPVHLDGSIFRRPAEHEFRGGPEQKLISEEDLNSAVDHHHHHH
Regarding B1, the “IC50, XTT viability assay on IFNγ-stimulated CD64+ HL-60 cells” value came out at 4.2 nM; the “IC50, XTT viability assay on activated human Mφ” value worked out at 0.075 nM; the “IC50, XTT viability assay on hIFNγ-stimulated HL-60 cells” value turned out to be 4.3 nM.

For the origin of these results see patent publication US20170114111A1 (UNIVERSITY OF CAPE TOWN, published 2017).
